For this assay, the target named is polygalacturonase (endo-PG) from the culture filtrate of Botrytis cinerea DEL 11 (Botrytis cinerea DEL 11).

B1: pear polygalacturonase inhibitor protein (PGIP) purified from Pyrus communis L. cv Bartlett fruit (protein)
chain: DLCNPDDKKVLLQIKKAFGDPYVLASWKSDTDCCDWYCVTCDSTTNRINSLTIFAGQVSGQIPALVGDLPYLETLEFHKQPNLTGPIQPAIAKLKGLKSLRLSWTNLSGSVPDFLSQLKNLTFLDLSFNNLTGAIPSSLSELPNLGALRLDRNKLTGHIPISFGQFIGNVPDLYLSHNQLSGNIPTSFAQMDFTSIDLSRNKLEGDASVIFGLNKTTQIVDLSRNLLEFNLSKVEFPTSLTSVDINHNKIYGSIPVEFTQLNFQFLNVSYNRLCGQIPVGGKLQSFDEYSYFHNRCLCGAPLPSCK
modifications: glycoprotein: N-linked glycans (seven potential N-glycosylation sites; occupied sites not determined)
B1 gave a release of reducing sugars from sodium polypectate (reducing sugar assay) (times (against the tomato PGIPs)) of 20.
